Data as given in the supplement of paper PMC7125110.
± gives the standard error. For some of these results: Variants at the floor of the assay were thinned out.

B1: glmS ribozyme (parent)
chain: AUAAAAGCGCCAGAACUACAGAAAUGUAGUUGACGAGGAGGAGGUUUAUCGAAUUUUCGGCGGAUGCCUCCAAA

Tests used:
Conditions in all cases: with glucosamine-6-phosphate
glucosamine-6-phosphate [1] = variants of: B1; assay: kcat; higher = faster cleavage; RNA array
Outline: (§1)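 Barcoded ribozyme variants were transcribed in situ on sequenced MiSeq chips by E. coli RNA polymerase. At 37 °C, a hybridised Cy3 probe tracked them while glucosamine-6-phosphate (40 μM to 10 mM) in HEPES/KCl/Mg(OAc)2 buffer flowed in and tiles were imaged over ~14 h. Per-tile medians of signals normalised to baseline and to non-cleaving reference variants were fit to one- or two-exponential decays, giving kobs. kcat and KM came from weighted Michaelis–Menten fits across concentrations.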

glucosamine-6-phosphate [2] = variants of: B1; assay: KM; higher = weaker cofactor use; RNA array
Outline: as §1

glucosamine-6-phosphate [3] = variants of: B1; assay: self-cleavage kobs at 640 uM GlcN6P; higher = faster cleavage; RNA array
Outline: as §1

glucosamine-6-phosphate [4] = variants of: B1; assay: self-cleavage kobs at 2500 uM GlcN6P; higher = faster cleavage; RNA array
Outline: as §1

glucosamine-6-phosphate [5] = variants of: B1; assay: self-cleavage kobs at 10000 uM GlcN6P; higher = faster cleavage; RNA array
Outline: as §1

glucosamine-6-phosphate [6] = variants of: B1; assay: self-cleavage kobs at 40 uM GlcN6P; higher = faster cleavage; RNA array
Outline: as §1

glucosamine-6-phosphate [7] = variants of: B1; assay: self-cleavage kobs at 160 uM GlcN6P; higher = faster cleavage; RNA array
Outline: as §1

Variant | kcat (glucosamine-6-phosphate [1]) | KM (glucosamine-6-phosphate [2]) | self-cleavage kobs at 640 uM GlcN6P (glucosamine-6-phosphate [3]) | self-cleavage kobs at 2500 uM GlcN6P (glucosamine-6-phosphate [4]) | self-cleavage kobs at 10000 uM GlcN6P (glucosamine-6-phosphate [5]) | self-cleavage kobs at 40 uM GlcN6P (glucosamine-6-phosphate [6]) | self-cleavage kobs at 160 uM GlcN6P (glucosamine-6-phosphate [7])
U54G G60U | < 1e-05 s⁻¹ | – | – | – | – | – | –
A12G G41A | 0.00048 ± 0.00011 s⁻¹ | 9.92 ± 3.5 mM | 3.72e-05 ± 1.2e-05 s⁻¹ | 8.85e-05 ± 1.7e-05 s⁻¹ | 0.000246 ± 3.7e-05 s⁻¹ | – | –
G44C C67G | 0.0216 ± 0.0034 s⁻¹ | 3.93 ± 0.79 mM | 0.00316 ± 0.00083 s⁻¹ | 0.00752 ± 0.0019 s⁻¹ | 0.0168 ± 0.0047 s⁻¹ | 0.000211 ± 4.8e-05 s⁻¹ | 0.000995 ± 0.00033 s⁻¹
U54C U56C | 0.0062 ± 0.0012 s⁻¹ | 4.05 ± 1 mM | 0.00084 ± 0.00013 s⁻¹ | 0.002 ± 0.00042 s⁻¹ | 0.00471 ± 0.00069 s⁻¹ | 7.75e-05 ± 1.4e-05 s⁻¹ | 0.000223 ± 3.3e-05 s⁻¹
C58G G66A | 5.59e-05 ± 5.7e-06 s⁻¹ | – | – | 5.32e-05 ± 1.5e-05 s⁻¹ | 5.1e-05 ± 7.9e-06 s⁻¹ | – | –
A14G C61U | 3.27e-05 ± 1.8e-06 s⁻¹ | 0.592 ± 0.24 mM | – | 2.91e-05 ± 9.3e-06 s⁻¹ | 3.02e-05 ± 6.3e-06 s⁻¹ | – | –
U47G C58G | 0.000117 ± 5.4e-05 s⁻¹ | – | 5.51e-05 ± 2.1e-05 s⁻¹ | 3.21e-05 ± 1.3e-05 s⁻¹ | 8.31e-05 ± 1.2e-05 s⁻¹ | – | –
A6U U46A | 0.000115 ± 1.6e-05 s⁻¹ | – | – | – | – | – | –
C10G A12G A53C G59C | 1.95e-05 ± 6.6e-06 s⁻¹ | – | – | – | – | – | –
U31C C70A | 6.32e-05 ± 4.7e-06 s⁻¹ | 0.135 ± 0.056 mM | 5.83e-05 ± 9.7e-06 s⁻¹ | 5.7e-05 ± 1.6e-05 s⁻¹ | 5.89e-05 ± 1.2e-05 s⁻¹ | – | 2.96e-05 ± 1.2e-05 s⁻¹
G37C G60C | < 1e-05 s⁻¹ | – | – | – | < 1e-05 s⁻¹ | – | –
G40A A53C | 0.00179 ± 0.0007 s⁻¹ | – | 0.000386 ± 0.00011 s⁻¹ | 0.000919 ± 0.0002 s⁻¹ | 0.00217 ± 0.0008 s⁻¹ | – | 0.000183 ± 5.8e-05 s⁻¹
U54C U69G | 6.89e-05 ± 7.2e-06 s⁻¹ | – | 5.03e-05 ± 1.1e-05 s⁻¹ | 7.28e-05 ± 1.1e-05 s⁻¹ | 5.47e-05 ± 1.8e-05 s⁻¹ | – | 3.54e-05 ± 1.6e-05 s⁻¹
A15U C70A | 6.56e-05 ± 1e-05 s⁻¹ | – | 3.49e-05 ± 1.2e-05 s⁻¹ | 6.73e-05 ± 7e-06 s⁻¹ | 4.87e-05 ± 1.1e-05 s⁻¹ | – | –
U45C U56A | 0.000778 ± 0.00024 s⁻¹ | – | 0.000288 ± 3.9e-05 s⁻¹ | 0.000377 ± 6.1e-05 s⁻¹ | 0.000928 ± 0.00015 s⁻¹ | – | 7.1e-05 ± 1.5e-05 s⁻¹
A36U C68G | 0.000198 ± 5.7e-05 s⁻¹ | – | 0.000275 ± 3.5e-05 s⁻¹ | – | 0.000121 ± 3.4e-05 s⁻¹ | 7.38e-05 ± 1.2e-05 s⁻¹ | –
C11U A12U G32A | 0.000169 ± 4.7e-05 s⁻¹ | – | – | 0.000124 ± 3.5e-05 s⁻¹ | 0.00013 ± 2.5e-05 s⁻¹ | – | –
C16A A39U | 0.00123 ± 0.00017 s⁻¹ | 2.41 ± 0.52 mM | 0.000287 ± 2.3e-05 s⁻¹ | 0.000654 ± 5.7e-05 s⁻¹ | 0.000937 ± 9e-05 s⁻¹ | – | 6.24e-05 ± 9.4e-06 s⁻¹
